Values quoted from earlier work as cited in US10421954B2, “Hybrid polymers, pharmaceutical compositions and methods of synthesizing the same” (New York University, priority 2013, dated 2019).

Conditions: literature value (ref. 25) for marketed PTH (1-34) (Forteo)

For `CC[C@H](C)[C@H](NC(=O)[C@H](CCC(=O)O)NC(=O)[C@H](CO)NC(=O)[C@@H](NC(=O)[C@@H](N)CO)C(C)C)C(=O)N[C@@H](CCC(N)=O)C(=O)N[C@@H](CC(C)C)C(=O)N[C@@H](CCSC)C(=O)N[C@@H](Cc1cnc[nH]1)C(=O)N[C@@H](CC(N)=O)C(=O)N[C@@H](CC(C)C)C(=O)NCC(=O)N[C@@H](CCCCN)C(=O)N[C@@H](Cc1cnc[nH]1)C(=O)N[C@@H](CC(C)C)C(=O)N[C@@H](CC(N)=O)C(=O)N[C@@H](CO)C(=O)N[C@@H](CCSC)C(=O)N[C@@H](CCC(=O)O)C(=O)N[C@@H](CCCN=C(N)N)C(=O)N[C@H](C(=O)N[C@@H](CCC(=O)O)C(=O)N[C@@H](Cc1c[nH]c2ccccc12)C(=O)N[C@@H](CC(C)C)C(=O)N[C@@H](CCCN=C(N)N)C(=O)N[C@@H](CCCCN)C(=O)N[C@@H](CCCCN)C(=O)N[C@@H](CC(C)C)C(=O)N[C@@H](CCC(N)=O)C(=O)N[C@@H](CC(=O)O)C(=O)N[C@H](C(=O)N[C@@H](Cc1cnc[nH]1)C(=O)N[C@@H](CC(N)=O)C(=O)N[C@@H](Cc1ccccc1)C(=O)O)C(C)C)C(C)C` [PTH (1-34), parathyroid hormone 1-34], the half-life in serum is listed as ~5 min.
